The results in this text go back to publication PMC7311171 (2020).

First the molecules themselves.
B1: BBS7, in vitro translated, tagged with a 6xMyc epitope [not stated] / GST-SMO^H8 (GST fused to the first 19 amino acids of SMO^Ctail, aa 543–559) [mouse] (parent complex)
chain 1: MDLILNRMDYLQVGVTSQKTMKLIPASRHRATQKVVIGDHDGVVMCFGMKKGEAAAVFKTLPGPKIARLELGGVINTPQEKIFIAAASEIRGFTKRGKQFLSFETNLTESIKAMHISGSDLFLSASYIYNHYCDCKDQHYYLSGDKINDVICLPVERLSRITPVLACQDRVLRVLQGSDVMYAVEVPGPPTVLALHNGNGGDSGEDLLFGTSDGKLALIQITTSKPVRKWEIQNEKKRGGILCIDSFDIVGDGVKDLLVGRDDGMVEVYSFDNANEPVLRFDQMLSESVTSIQGGCVGKDSYDEIVVSTYSGWVTGLTTEPIHKESGPGEELKINQEMQNKISSLRNELEHLQYKVLQERENYQQSSQSSKAKSAVPSFGINDKFTLNKDDASYSLILEVQTAIDNVLIQSDVPIDLLDVDKNSAVVSFSSCDSESNDNFLLATYRCQADTTRLELKIRSIEGQYGTLQAYVTPRIQPKTCQVRQYHIKPLSLHQRTHFIDHDRPMNTLTLTGQFSFAEVHSWVVFCLPEVPEKPPAGECVTFYFQNTFLDTQLESTYRKGEGVFKSDNISTISILKDVLSKEATKRKINLNISYEINEVSVKHTLKLIHPKLEYQLLLAKKVQLIDALKELQIHEGNTNFLIPEYHCILEEADHLQEEYKKQPAHLERLYG
chain 2: KATLLIWRRTWCRLTGH

In this test the parent is B1. Nature of the test: GST capture assay (pull-down) of in vitro translated Myc-BBS7, quantified from anti-Myc blot; parent: 4.4; read off a plot.
Turning to chain 2 KATLLIAARTAARLTGH [chain 2 W7A, chain 2 R8A, chain 2 W11A, chain 2 C12A], the response is ~0.12 ‰.
To chain 2 KATLLIARRTACRLTGH [chain 2 W7A, chain 2 W11A] belongs ~0.28 ‰.
For the variant chain 2 KATLLIWARTWCRLTGH [chain 2 R8A], the response is ~1.3 ‰.
To chain 2 KATLLIARRTWCRLTGH [chain 2 W7A] belongs ~0.85 ‰; to chain 2 KATLLIWRRTACRLTGH [chain 2 W11A], ~3.6 ‰.
For chain 2 KATLLIWRRTWARLTGH [chain 2 C12A] the value was ~4.9 ‰; for chain 2 KATLLIWARTWARLTGH [chain 2 R8A, chain 2 C12A], ~0.9 ‰.
